Data from patent publication US20030186258.

Target: fusion protein PNP20aa-hGH (UniProt P01241)
Sequence (P01241 27-217): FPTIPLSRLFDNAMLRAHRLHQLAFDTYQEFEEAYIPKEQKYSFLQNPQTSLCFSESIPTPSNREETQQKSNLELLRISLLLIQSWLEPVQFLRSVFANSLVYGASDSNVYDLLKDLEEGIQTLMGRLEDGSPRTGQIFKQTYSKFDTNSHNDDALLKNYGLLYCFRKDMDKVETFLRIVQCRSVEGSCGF

ss-Kex1 protease immobilised on Eupergit C250L resin
digestion of the fused protein (SDS-PAGE), 15 hours: almost complete: digestion is obtained after 15 hours
